Reference: paper PMC10045489 (2023)

B1: H11-H4 nanobody (VHH)
VHH: QVQLVESGGGLMQAGGSLRLSCAVSGRTFSTAAMGWFRQAPGKEREFVAAIRWSGGSAYYADSVKGRFTISRDKAKNTVYLQMNSLKYEDTAVYYCAQTHYVSYLLSDYATWPYDYWGQGTQVTVSS
B2: Nb20 nanobody (VHH)
VHH: QVQLVESGGGLVQAGGSLRLSCAVSGAGAHRVGWFRRAPGKEREFVAAIGASGGMTNYLDSVKGRFTISRDNAKNTIYLQMNSLKPQDTAVYYCAARDIETAEYIYWGQGTQVTVSS
B3: ab8 nanobody (VHH)
VHH: QVQLVESGGGLVQPGGSLRLSCAASGFTFDDYAMSWVRQAPGKGLEWIGRMYNNGRTSYNPSLKSLVTISRDNSKNTLYLQMNSLRAEDTATYYCARDNLGYRPSENLYGMDVWGQGTQVTVSS

These binders were tested against full-length His-tagged SARS-CoV-2 spike protein (wild-type) (SARS-CoV-2, UniProt P0DTC2) (assay: BLI).
For B1, the Kd was roughly 61 nM. B2 showed a Kd of roughly 0.72 nM. With B3 the Kd was roughly 120 nM.
